Experimental findings from PMC8131606 are described below.

Assay [1] has as its target F1 (F228A) opsin (bovine) (UniProt P02699).
The target of assay [2] is F2 (F221A, F228A) opsin (bovine) (UniProt P02699).
Assay [3] has as its target F3 (F220C, F221A, F228A) opsin (bovine) (UniProt P02699).
Assay [4] concerns the target WT opsin (thermostable bovine opsin with C-terminal 3X-FLAG tag) (bovine) (UniProt P02699).

“F1 (F228A) opsin (from UniProt P02699 1-348) (receptor)”: the ratio of mono-exponential fit constants α(construct)/αWT from scramblase-based analysis of reconstitution into vesicles in assay [1] came to 1.

“F2 (F221A, F228A) opsin (from UniProt P02699 1-348) (receptor)”: the ratio of mono-exponential fit constants α(construct)/αWT from scramblase-based analysis of reconstitution into vesicles in assay [2] amounted to 1.

With “F3 (F220C, F221A, F228A) opsin (from UniProt P02699 1-348) (receptor)”, the ratio of mono-exponential fit constants αF3/αWT from scramblase-based analysis of reconstitution into vesicles in assay [3] came to 0.4.

“WT opsin (thermostable bovine opsin with C-terminal 3X-FLAG tag) (from UniProt P02699 1-348) (receptor)”: the mono-exponential fit constant (α) of p(≥ 1) scramblase versus PPR* after reconstitution of purified opsin into vesicles in assay [4] was 0.25.
